We go through one sequence from paper PMC5861037.

For this data set, the target named is DosR (Mycobacterium tuberculosis H37Rv) (UniProt P9WMF9). Kind of data set: EMSA. As to conditions: 25 mM Tris-HCl pH 8.0, 20 mM KCl, 0.5 mM EDTA, 6 mM MgCl2, 1 mM DTT, 1 ug/mL poly I:C; room temperature, 10 min; 6.5% native Tris-glycine PAGE, silver staining. (Mobility shift assays separate free from complexed probe on a gel.)

On to “TTGATGCCTCCTAATCGATGGAAACGGATGCCTTTGATCCGACCAGCCCATCGTGGCCAGGGCTAGGGACAGAAGTCCCCGAAGCGCGGGCCATTTGTCCGCGCCCGTCGGTGATCCACTTGGGGACCATTGACCCTGTTGTCTGCCA (double strand) [acr promoter fragment]”, for which the binding entry is recorded as “binds”.
